# Assay results as given in publication PMC4474691, “Leukemia-Associated Mutations in Nucleophosmin Alter Recognition by CRM1: Molecular Basis of Aberrant Transport” (PLoS ONE, 2015).
# B1: importin Δα (importin α lacking the importin β binding (IBB) motif) (domain or fragment)
# chain: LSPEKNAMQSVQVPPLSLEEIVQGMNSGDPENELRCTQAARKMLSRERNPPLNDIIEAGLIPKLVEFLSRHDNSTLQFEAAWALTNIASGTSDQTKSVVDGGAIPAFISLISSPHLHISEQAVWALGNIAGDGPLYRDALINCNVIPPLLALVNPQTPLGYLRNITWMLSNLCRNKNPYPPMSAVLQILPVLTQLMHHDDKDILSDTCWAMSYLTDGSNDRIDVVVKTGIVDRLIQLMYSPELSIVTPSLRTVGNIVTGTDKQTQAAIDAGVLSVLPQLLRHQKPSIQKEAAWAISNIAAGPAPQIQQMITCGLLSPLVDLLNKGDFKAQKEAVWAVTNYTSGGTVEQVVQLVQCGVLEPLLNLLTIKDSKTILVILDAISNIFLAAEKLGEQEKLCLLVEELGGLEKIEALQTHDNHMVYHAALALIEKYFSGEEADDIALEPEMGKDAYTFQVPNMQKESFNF
# B2: importin α (receptor)
# chain: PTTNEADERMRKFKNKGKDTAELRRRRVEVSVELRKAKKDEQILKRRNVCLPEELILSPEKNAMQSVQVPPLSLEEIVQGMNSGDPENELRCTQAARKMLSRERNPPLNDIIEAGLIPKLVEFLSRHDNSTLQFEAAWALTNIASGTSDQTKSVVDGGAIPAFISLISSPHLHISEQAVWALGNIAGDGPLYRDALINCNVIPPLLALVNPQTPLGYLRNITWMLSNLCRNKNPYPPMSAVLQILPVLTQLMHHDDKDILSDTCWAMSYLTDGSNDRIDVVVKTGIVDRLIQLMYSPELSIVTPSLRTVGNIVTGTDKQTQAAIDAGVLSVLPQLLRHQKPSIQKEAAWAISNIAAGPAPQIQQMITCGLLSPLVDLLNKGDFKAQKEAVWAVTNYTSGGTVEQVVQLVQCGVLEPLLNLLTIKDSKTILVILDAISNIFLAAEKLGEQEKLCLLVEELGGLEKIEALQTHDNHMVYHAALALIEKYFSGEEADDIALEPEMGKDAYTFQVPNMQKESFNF
# Target: T1, wild type nucleophosmin (NPM) (human, UniProt P06748 1-294)
# T1 construct: human nucleophosmin, full length, wild type, pentameric; also called NPM1; B23; source: E. coli BL21 (DE3), purified (Ni-NTA, TEV, second Ni-NTA, Superdex 200); not shown: (His)10-ZZ, N-terminal, cleaved
# T1 sequence (P06748 whole entry): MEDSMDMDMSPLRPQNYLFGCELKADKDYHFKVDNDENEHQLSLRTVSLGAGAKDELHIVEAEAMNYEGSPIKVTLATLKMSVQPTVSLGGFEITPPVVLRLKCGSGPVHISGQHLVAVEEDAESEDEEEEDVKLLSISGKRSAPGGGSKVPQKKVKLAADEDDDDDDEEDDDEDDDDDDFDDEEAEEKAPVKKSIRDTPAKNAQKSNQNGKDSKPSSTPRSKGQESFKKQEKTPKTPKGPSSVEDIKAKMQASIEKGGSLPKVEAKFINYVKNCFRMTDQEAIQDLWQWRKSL
# Assay: ITC; importin α, importin Δα or importin α/β at 45–60 μM titrated onto NPM (1–1.2 μM pentamer); 50 mM Tris/HCl pH 7.5, 100 mM NaCl, 2 mM TCEP, 10% glycerol; identical, independent binding sites model; n counts importins for each NPM pentamer
# Settings: both partners purified
Binder,Kd,dH,stoichiometry N
B1,295 ± 20 nM,-14.3 ± 3.5 kcal/mol,4.9 ± 0.2
B2,703 ± 347 nM,-10.9 ± 4 kcal/mol,5 ± 0.2
